In patent publication US6036923:

Assays:
[1] = tested on: T4 DNA polymerase (3'-5' exonuclease) (Bacteriophage T4?); assay: cleavage_in_vitro; settings: atmospheric pressure, room temperature
[2] = tested on: Lambda exonuclease; assay: cleavage_in_vitro; settings: rate at 30,000 psi, 20 C; 89 mM glycine-KOH pH 9.4, 3.3 mM MgCl2 assay buffer; reversible pressure inhibition

Row | Substance | activity (bp digested in 20 min) [1] | activity [2]
1 | DNA size markers (lambda DNA) | 100 | 
2 | Lambda DNA HindIII digest fragments |  | 0.1 bases/s
